Assay results: the supplement of paper PMC9112550, “Optimization of the antimicrobial peptide Bac7 by deep mutational scanning” (BMC Biology, 2022)

Each sequence was assayed on Escherichia coli TOP10 (assay: shrunken log2 fold change of peptide-encoding DNA abundance (4.5 h post-induction vs induction); higher = less antimicrobial activity (less host growth inhibition)). Conditions: time post-induction: 4.5 h; library: site-saturation at positions 5, 18, 19, 20.
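Further: peptides expressed intracellularly from a pBAD plasmid library in pooled LB shake-flask culture, induced with 0.3% L-arabinose, DNA abundance read by NGS, three biological replicates, DESeq2 with apeglm shrinkage.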

Sequence | shrunken log2 fold change
RRIRCRPPRLPRPRPRPMCYPRP | -0.244
RRIRQRPPRLPRPRPRPGGYPRP | 0.144
RRIRDRPPRLPRPRPRPKCNPRP | -0.13
RRIRARPPRLPRPRPRPVTNPRP | 0.275
RRIRSRPPRLPRPRPRPCNRPRP | 0.0326
RRIRMRPPRLPRPRPRPDYRPRP | -0.146
RRIRMRPPRLPRPRPRPQTAPRP | 0.524
RRIRSRPPRLPRPRPRPEPCPRP | 0.108
RRIRCRPPRLPRPRPRPKRMPRP | 0.118
RRIRHRPPRLPRPRPRPAIGPRP | -0.0264
RRIRYRPPRLPRPRPRPTWPPRP | 0.183
RRIRIRPPRLPRPRPRPCINPRP | -0.355
RRIRVRPPRLPRPRPRPDSAPRP | 0.0792
RRIRERPPRLPRPRPRPYLAPRP | -0.225
RRIRFRPPRLPRPRPRPYGTPRP | -0.81
RRIRKRPPRLPRPRPRPNLSPRP | -0.0224
RRIRYRPPRLPRPRPRPLWCPRP | -0.125
RRIRARPPRLPRPRPRPTSNPRP | 0.00789
RRIRVRPPRLPRPRPRPNRMPRP | -0.093
RRIRKRPPRLPRPRPRPIVGPRP | 0.117
RRIRRRPPRLPRPRPRPRALPRP | 0.482
RRIRFRPPRLPRPRPRPLNAPRP | -0.166
RRIRSRPPRLPRPRPRPDKMPRP | -0.15

Sequence | shrunken log2 fold change
RRIRDRPPRLPRPRPRPCINPRP | 0.224
RRIRNRPPRLPRPRPRPRHVPRP | -0.119
RRIRCRPPRLPRPRPRPICQPRP | -0.0542
RRIRWRPPRLPRPRPRPKVFPRP | -0.00123
RRIRCRPPRLPRPRPRPHQYPRP | -0.05
RRIRGRPPRLPRPRPRPFFEPRP | 0.428
RRIRKRPPRLPRPRPRPMPNPRP | 0.399
RRIRARPPRLPRPRPRPVGSPRP | 0.383
RRIRHRPPRLPRPRPRPVVKPRP | -0.132
RRIRSRPPRLPRPRPRPLGMPRP | -0.243
RRIRYRPPRLPRPRPRPPWIPRP | -0.447
RRIRGRPPRLPRPRPRPNHVPRP | 0.425
RRIRVRPPRLPRPRPRPKTKPRP | 0.0179
RRIRSRPPRLPRPRPRPKFWPRP | 0.759
RRIRTRPPRLPRPRPRPTEDPRP | 0.196
RRIRWRPPRLPRPRPRPCYMPRP | -0.282
RRIRTRPPRLPRPRPRPNGMPRP | -0.245
RRIRPRPPRLPRPRPRPEYTPRP | -0.0863
RRIRWRPPRLPRPRPRPGSLPRP | 0.0223
RRIRMRPPRLPRPRPRPPDFPRP | 0.549
RRIRWRPPRLPRPRPRPAMFPRP | 0.324
RRIRQRPPRLPRPRPRPYINPRP | -0.299
RRIRYRPPRLPRPRPRPSWAPRP | -0.21

Sequence | shrunken log2 fold change
RRIRNRPPRLPRPRPRPQHSPRP | -0.428
RRIRYRPPRLPRPRPRPYIYPRP | -2.06
RRIRYRPPRLPRPRPRPDMTPRP | -0.149
RRIRDRPPRLPRPRPRPMNPPRP | -0.0564
RRIRYRPPRLPRPRPRPQVWPRP | -0.0375
RRIRIRPPRLPRPRPRPGKFPRP | -0.0679
RRIRERPPRLPRPRPRPLATPRP | 0.133
RRIRQRPPRLPRPRPRPSIFPRP | -0.635
RRIRNRPPRLPRPRPRPEPKPRP | 0.0124
RRIRSRPPRLPRPRPRPSQPPRP | -0.14
RRIRYRPPRLPRPRPRPYQFPRP | -0.183
RRIRYRPPRLPRPRPRPPEVPRP | -0.142
RRIRERPPRLPRPRPRPKVFPRP | 0.0354
RRIRCRPPRLPRPRPRPVRKPRP | 0.0744
RRIRDRPPRLPRPRPRPTFYPRP | -0.286
RRIRIRPPRLPRPRPRPDWMPRP | -0.131
RRIRERPPRLPRPRPRPQNCPRP | -0.0646
RRIRQRPPRLPRPRPRPNETPRP | -0.0269
RRIRCRPPRLPRPRPRPVIFPRP | -0.408
RRIRGRPPRLPRPRPRPSAIPRP | 1.3
RRIRTRPPRLPRPRPRPPGSPRP | 0.00863
RRIRWRPPRLPRPRPRPHPKPRP | 0.408
RRIRFRPPRLPRPRPRPEKHPRP | 0.176

Sequence | shrunken log2 fold change
RRIRERPPRLPRPRPRPMAVPRP | 0.19
RRIRGRPPRLPRPRPRPVTQPRP | 0.445
RRIRQRPPRLPRPRPRPNQIPRP | -0.371
RRIRERPPRLPRPRPRPQWRPRP | -0.0529
RRIRLRPPRLPRPRPRPWNHPRP | -0.347
RRIRKRPPRLPRPRPRPHADPRP | 0.0566
RRIRARPPRLPRPRPRPVPDPRP | 0.493
RRIRARPPRLPRPRPRPANTPRP | 0.0584
RRIRRRPPRLPRPRPRPFGYPRP | -0.018
RRIRQRPPRLPRPRPRPQATPRP | -0.00963
RRIRSRPPRLPRPRPRPFIIPRP | -0.34
RRIRQRPPRLPRPRPRPKGCPRP | -0.0208
RRIRCRPPRLPRPRPRPFNMPRP | -0.052
RRIRWRPPRLPRPRPRPQPYPRP | -0.166
RRIRSRPPRLPRPRPRPATHPRP | -0.0838
RRIRPRPPRLPRPRPRPIIVPRP | -0.178
RRIRIRPPRLPRPRPRPKAGPRP | 0.0458
RRIRERPPRLPRPRPRPRVAPRP | 0.343
RRIRIRPPRLPRPRPRPKVHPRP | -0.094
RRIRERPPRLPRPRPRPIYAPRP | -0.086
RRIRGRPPRLPRPRPRPSKQPRP | -0.0392
RRIRHRPPRLPRPRPRPPVPPRP | 0.441
